Laboratory results reported in US20060211075A1, “Enzyme sensors including environmentally sensitive or fluorescent labels and uses thereof” (The Albert Einstein College of Medicine of Yeshiva …, priority 2005, published 2006).
One block for each substance: values may come before it.

Assays:
GST-Lck-SH2 [1] = target: GST-Lck-SH2 (UniProt P06239); experiment: fluorescence change on Src-catalysed phosphorylation in presence of GST-Lck-SH2 (1.25 µM peptide, 5 µM Lck-SH2, 12 nM Src, 1 mM ATP)
GST-Lck-SH2 [2] = target: GST-Lck-SH2 (UniProt P06239); experiment: fluorescence change on Src-catalysed phosphorylation in presence of GST-Lck-SH2; value in parentheses, amide-capped peptide 13
[3] = test system: T1, CC[C@H](C)[C@H](NC(=O)[C@H](CCC(=O)O)NC(=O)[C@H](CNc1ccc([N+](=O)[O-])c2nonc12)NC(=O)[C@H](Cc1ccc(O)cc1)NC(=O)[C@@H](NC(=O)[C@H](CCC(=O)O)NC(=O)[C@H](CCC(=O)O)NC(=O)[C@H](CCC(=O)O)NC(C)=O)[C@@H](C)CC)C(=O)N[C@@H](CCC(=O)O)C(=O)N[C@@H](C)C(N)=O; experiment: purified protein, by the assay type; assay type: biochemical; conditions: other: Src kinase; Lck-SH2 20 μM; varying peptide; pH 7.5; 30.0 °C
T1 construct: purchased Invitrogen
Procedure: The fluorescence change was monitored as a function of time. Control assays in the absence of Lck-SH2 were also performed.
The final Src concentration was 30 nM for peptide 13 and 15 nM for peptide 14.

GST-Lck-SH2 [4] = target: GST-Lck-SH2 (UniProt P06239); experiment: fluorescence change on Src-catalysed phosphorylation in presence of GST-Lck-SH2; value in parentheses, amide-capped peptide 14
GST-Lck-SH2 [5] = target: GST-Lck-SH2 (UniProt P06239); experiment: fluorescence change on Src-catalysed phosphorylation in presence of GST-Lck-SH2 (1.25 µM peptide, 5 µM Lck-SH2, 12 nM Src, 1 mM ATP); library peptide with -NH(CH2)2SH
[6] = target: phosphotyrosine version of peptide 13, Ac-Glu-Glu-Glu-Ile-pTyr-Dap(NBD)-Glu-Ile-Glu-Ala-amide; experiment: Src phosphorylation of 16 µM peptide 13 at 26 µM Lck-SH2, fluorescence
[7] = target: phosphotyrosine version of peptide 13, Ac-Glu-Glu-Glu-Ile-pTyr-Dap(NBD)-Glu-Ile-Glu-Ala-amide; experiment: Src phosphorylation of 16 µM peptide 13 at 4 µM Lck-SH2, fluorescence
[8] = target: phosphorylated peptide 14, Ac-Glu-Glu-Glu-Ile-pTyr-Gly-Glu-Ile-Dab(dapoxyl)-Ala-amide; experiment: Src phosphorylation of 8 µM peptide 14 at 2 µM Lck-SH2, fluorescence
[9] = target: phosphorylated peptide 14, Ac-Glu-Glu-Glu-Ile-pTyr-Gly-Glu-Ile-Dab(dapoxyl)-Ala-amide; experiment: Src phosphorylation of 8 µM peptide 14 at 32 µM Lck-SH2, fluorescence
[10] = target: phosphotyrosine version of peptide 13, Ac-Glu-Glu-Glu-Ile-pTyr-Dap(NBD)-Glu-Ile-Glu-Ala-amide; experiment: Src phosphorylation of 16 µM peptide 13 at 16 µM Lck-SH2, fluorescence
[11] = target: phosphorylated peptide 14, Ac-Glu-Glu-Glu-Ile-pTyr-Gly-Glu-Ile-Dab(dapoxyl)-Ala-amide; experiment: Src phosphorylation of 8 µM peptide 14 at 12 µM Lck-SH2, fluorescence
[12] = target: phosphorylated peptide 14, Ac-Glu-Glu-Glu-Ile-pTyr-Gly-Glu-Ile-Dab(dapoxyl)-Ala-amide; experiment: Src phosphorylation of 8 µM peptide 14 at 20 µM Lck-SH2, fluorescence
[13] = target: phosphorylated peptide 14, Ac-Glu-Glu-Glu-Ile-pTyr-Gly-Glu-Ile-Dab(dapoxyl)-Ala-amide; experiment: Src phosphorylation of 8 µM peptide 14 at 16 µM Lck-SH2, fluorescence
[14] = target: phosphorylated peptide 14, Ac-Glu-Glu-Glu-Ile-pTyr-Gly-Glu-Ile-Dab(dapoxyl)-Ala-amide; experiment: Src phosphorylation of 8 µM peptide 14 at 4 µM Lck-SH2, fluorescence
[15] = target: phosphotyrosine version of peptide 13, Ac-Glu-Glu-Glu-Ile-pTyr-Dap(NBD)-Glu-Ile-Glu-Ala-amide; experiment: Src phosphorylation of 16 µM peptide 13 at 12 µM Lck-SH2, fluorescence
[16] = target: phosphotyrosine version of peptide 13, Ac-Glu-Glu-Glu-Ile-pTyr-Dap(NBD)-Glu-Ile-Glu-Ala-amide; experiment: Src phosphorylation of 16 µM peptide 13 at 32 µM Lck-SH2, fluorescence
[17] = target: phosphorylated peptide 14, Ac-Glu-Glu-Glu-Ile-pTyr-Gly-Glu-Ile-Dab(dapoxyl)-Ala-amide; experiment: Src phosphorylation of 8 µM peptide 14 at 0.2 µM Lck-SH2, fluorescence
[18] = target: phosphotyrosine version of peptide 13, Ac-Glu-Glu-Glu-Ile-pTyr-Dap(NBD)-Glu-Ile-Glu-Ala-amide; experiment: Src phosphorylation of 16 µM peptide 13 at 8 µM Lck-SH2, fluorescence
[19] = target: phosphotyrosine version of peptide 13, Ac-Glu-Glu-Glu-Ile-pTyr-Dap(NBD)-Glu-Ile-Glu-Ala-amide; experiment: Src phosphorylation of 16 µM peptide 13 at 0 µM Lck-SH2 (baseline point of the titration)
[20] = target: phosphorylated peptide 14, Ac-Glu-Glu-Glu-Ile-pTyr-Gly-Glu-Ile-Dab(dapoxyl)-Ala-amide; experiment: Src phosphorylation of 8 µM peptide 14 at 8 µM Lck-SH2, fluorescence
[21] = target: phosphotyrosine version of peptide 13, Ac-Glu-Glu-Glu-Ile-pTyr-Dap(NBD)-Glu-Ile-Glu-Ala-amide; experiment: Src phosphorylation of 16 µM peptide 13 at 20 µM Lck-SH2, fluorescence
[22] = target: phosphotyrosine version of peptide 13, Ac-Glu-Glu-Glu-Ile-pTyr-Dap(NBD)-Glu-Ile-Glu-Ala-amide; experiment: fluorescence titration: Src-phosphorylated peptide 13 fixed at 16 µM, GST-Lck-SH2 varied, nonlinear regression
[23] = target: phosphorylated peptide 14, Ac-Glu-Glu-Glu-Ile-pTyr-Gly-Glu-Ile-Dab(dapoxyl)-Ala-amide; experiment: Src phosphorylation of 8 µM peptide 14 at 26 µM Lck-SH2, fluorescence

Chain of GST-Lck-SH2 (P06239 127-224): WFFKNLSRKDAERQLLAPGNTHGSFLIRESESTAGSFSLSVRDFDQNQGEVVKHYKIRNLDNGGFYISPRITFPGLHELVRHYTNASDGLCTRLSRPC

Fold change in fluorescence intensity (GST-Lck-SH2 [1]): 1.3 fold
Substance: Src-phosphorylated library peptide with Dap-6 (NBD on Dap) at P+4 of Ac-Glu-Glu-Glu-Ile-Tyr-Gly-Glu-Ile-Glu-Ala

Fold change in fluorescence intensity (GST-Lck-SH2 [1]): 3.3 fold
Substance: Src-phosphorylated library peptide with Dap-5 (dapoxyl on Dap) at P+3 of Ac-Glu-Glu-Glu-Ile-Tyr-Gly-Glu-Ile-Glu-Ala

Fold change in fluorescence intensity (GST-Lck-SH2 [1]): 1.5 fold
Substance: Src-phosphorylated library peptide with Dab-7 (Cascade Yellow on Dab) at P+1 of Ac-Glu-Glu-Glu-Ile-Tyr-Gly-Glu-Ile-Glu-Ala

Fold change in fluorescence intensity (GST-Lck-SH2 [1]): 1.4 fold
Substance: Src-phosphorylated library peptide with Dab-6 (NBD on Dab) at P+2 of Ac-Glu-Glu-Glu-Ile-Tyr-Gly-Glu-Ile-Glu-Ala

Fold change in fluorescence intensity (GST-Lck-SH2 [1]): 1.8 fold
Substance: Src-phosphorylated library peptide with Dap-7 (Cascade Yellow on Dap) at P+2 of Ac-Glu-Glu-Glu-Ile-Tyr-Gly-Glu-Ile-Glu-Ala

Fold change in fluorescence intensity (GST-Lck-SH2 [1]): 2.1 fold
Substance: Src-phosphorylated library peptide with Dab-7 (Cascade Yellow on Dab) at P+3 of Ac-Glu-Glu-Glu-Ile-Tyr-Gly-Glu-Ile-Glu-Ala

Fold change in fluorescence intensity (GST-Lck-SH2 [2]): 1.6 fold
Substance: phosphotyrosine version of peptide 13, Ac-Glu-Glu-Glu-Ile-pTyr-Dap(NBD)-Glu-Ile-Glu-Ala-amide

Fold change in fluorescence intensity (GST-Lck-SH2 [1]): 2.4 fold
Substance: Src-phosphorylated library peptide with Dab-5 (dapoxyl on Dab) at P+1 of Ac-Glu-Glu-Glu-Ile-Tyr-Gly-Glu-Ile-Glu-Ala

Fold change in fluorescence intensity (GST-Lck-SH2 [1]): 1.4 fold
Substance: Src-phosphorylated library peptide with Dap-7 (Cascade Yellow on Dap) at P+1 of Ac-Glu-Glu-Glu-Ile-Tyr-Gly-Glu-Ile-Glu-Ala

Fold change in fluorescence intensity (GST-Lck-SH2 [1]): 1.3 fold
Substance: Src-phosphorylated library peptide with Dap-6 (NBD on Dap) at P+3 of Ac-Glu-Glu-Glu-Ile-Tyr-Gly-Glu-Ile-Glu-Ala

Fold change in fluorescence intensity (GST-Lck-SH2 [1]): 1.9 fold
Substance: Src-phosphorylated library peptide with Dab-6 (NBD on Dab) at P+3 of Ac-Glu-Glu-Glu-Ile-Tyr-Gly-Glu-Ile-Glu-Ala

Substance: Src (Homo sapiens)
Km [3]: 32 ± 0.5 µM
Vmax [3]: 1.4 ± 0.1 µmol/min/mg

Fold change in fluorescence intensity (GST-Lck-SH2 [1]): 1.6 fold
Substance: Src-phosphorylated library peptide with Dab-7 (Cascade Yellow on Dab) at P+4 of Ac-Glu-Glu-Glu-Ile-Tyr-Gly-Glu-Ile-Glu-Ala

Fold change in fluorescence intensity (GST-Lck-SH2 [1]): 2.4 fold
Substance: Src-phosphorylated library peptide with Dap-5 (dapoxyl on Dap) at P+2 of Ac-Glu-Glu-Glu-Ile-Tyr-Gly-Glu-Ile-Glu-Ala

Fold change in fluorescence intensity (GST-Lck-SH2 [1]): 1.6 fold
Substance: Src-phosphorylated library peptide with Dap-7 (Cascade Yellow on Dap) at P+3 of Ac-Glu-Glu-Glu-Ile-Tyr-Gly-Glu-Ile-Glu-Ala

Fold change in fluorescence intensity (GST-Lck-SH2 [4]): 7.2 fold
Substance: phosphorylated peptide 14, Ac-Glu-Glu-Glu-Ile-pTyr-Gly-Glu-Ile-Dab(dapoxyl)-Ala-amide

Fold change in fluorescence intensity (GST-Lck-SH2 [1]): 1.4 fold
Substance: Src-phosphorylated library peptide with Dap-7 (Cascade Yellow on Dap) at P+4 of Ac-Glu-Glu-Glu-Ile-Tyr-Gly-Glu-Ile-Glu-Ala

Fold change in fluorescence intensity (GST-Lck-SH2 [1]): 3.6 fold
Substance: Src-phosphorylated library peptide with Dab-5 (dapoxyl on Dab) at P+3 of Ac-Glu-Glu-Glu-Ile-Tyr-Gly-Glu-Ile-Glu-Ala

Fold change in fluorescence intensity (GST-Lck-SH2 [1]): 1.7 fold
Substance: Src-phosphorylated library peptide with Dab-6 (NBD on Dab) at P+4 of Ac-Glu-Glu-Glu-Ile-Tyr-Gly-Glu-Ile-Glu-Ala

Fold change in fluorescence intensity (GST-Lck-SH2 [1]): 2.3 fold
Substance: Src-phosphorylated library peptide with Dap-5 (dapoxyl on Dap) at P+4 of Ac-Glu-Glu-Glu-Ile-Tyr-Gly-Glu-Ile-Glu-Ala

Fold change in fluorescence intensity (GST-Lck-SH2 [1]): 1.3 fold
Substance: Src-phosphorylated library peptide with Dab-6 (NBD on Dab) at P+1 of Ac-Glu-Glu-Glu-Ile-Tyr-Gly-Glu-Ile-Glu-Ala

Fold change in fluorescence intensity (GST-Lck-SH2 [1]): 1.6 fold
Substance: Src-phosphorylated library peptide with Dab-5 (dapoxyl on Dab) at P+2 of Ac-Glu-Glu-Glu-Ile-Tyr-Gly-Glu-Ile-Glu-Ala

Fold change in fluorescence intensity (GST-Lck-SH2 [5]): 1.6 fold
Substance: Src-phosphorylated library peptide with Dap-6 (NBD on Dap) at P+1 of Ac-Glu-Glu-Glu-Ile-Tyr-Gly-Glu-Ile-Glu-Ala

Fold change in fluorescence intensity (GST-Lck-SH2 [5]): 4.1 fold
Substance: Src-phosphorylated library peptide with Dab-5 (dapoxyl on Dab) at P+4 of Ac-Glu-Glu-Glu-Ile-Tyr-Gly-Glu-Ile-Glu-Ala

Fold change in fluorescence intensity (GST-Lck-SH2 [1]): 1.7 fold
Substance: Src-phosphorylated library peptide with Dab-7 (Cascade Yellow on Dab) at P+2 of Ac-Glu-Glu-Glu-Ile-Tyr-Gly-Glu-Ile-Glu-Ala

Fluorescence Increase (fold change) [6]: 1.61 fold
Fluorescence Increase (fold change) [7]: 1.24 fold
Fluorescence Increase (fold change) [8]: 1.7 fold
Fluorescence Increase (fold change) [9]: 7.2 fold
Fluorescence Increase (fold change) [10]: 1.52 fold
Fluorescence Increase (fold change) [11]: 5.34 fold
Fluorescence Increase (fold change) [12]: 6.85 fold
Fluorescence Increase (fold change) [13]: 6.2 fold
Fluorescence Increase (fold change) [14]: 2.32 fold
Fluorescence Increase (fold change) [15]: 1.41 fold
Fluorescence Increase (fold change) [16]: 1.59 fold
Fluorescence Increase (fold change) [17]: 1.07 fold
Fluorescence Increase (fold change) [18]: 1.33 fold
Fluorescence Increase (fold change) [19]: 1.07 fold
Fluorescence Increase (fold change) [20]: 4.31 fold
Fluorescence Increase (fold change) [21]: 1.56 fold
Kd [22]: 2100 nM
Fluorescence Increase (fold change) [23]: 7.32 fold
Substance: GST-Lck-SH2 (from UniProt P06239 127-224)
